In one series the target is T1, AbHBDH (Acinetobacter baumannii, UniProt A0A1E3M3N6).
T1 construct: gene AUO97_16470; recombinant purified enzyme; cloning details only in supplement
T1 sequence (A0A1E3M3N6 1-261): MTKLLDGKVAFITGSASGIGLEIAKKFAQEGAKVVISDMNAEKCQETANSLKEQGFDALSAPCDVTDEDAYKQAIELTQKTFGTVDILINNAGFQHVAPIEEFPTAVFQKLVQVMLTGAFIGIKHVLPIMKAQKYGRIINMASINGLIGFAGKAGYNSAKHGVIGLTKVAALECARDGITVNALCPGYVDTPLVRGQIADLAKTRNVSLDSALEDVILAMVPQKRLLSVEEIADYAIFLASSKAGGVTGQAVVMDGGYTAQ
In words: stopped-flow single-turnover kinetics, NADH limiting. Format: biochemical. The conditions noted are these: acetoacetate or 3-oxovalerate as co-substrate; 283 and 298 K.

The target in a further series is T2, PaHBDH (Psychrobacter arcticus, UniProt Q4FRT2).
T2 construct: gene Psyc_1428; recombinant purified enzyme; cloning details only in supplement
T2 sequence (Q4FRT2 1-266): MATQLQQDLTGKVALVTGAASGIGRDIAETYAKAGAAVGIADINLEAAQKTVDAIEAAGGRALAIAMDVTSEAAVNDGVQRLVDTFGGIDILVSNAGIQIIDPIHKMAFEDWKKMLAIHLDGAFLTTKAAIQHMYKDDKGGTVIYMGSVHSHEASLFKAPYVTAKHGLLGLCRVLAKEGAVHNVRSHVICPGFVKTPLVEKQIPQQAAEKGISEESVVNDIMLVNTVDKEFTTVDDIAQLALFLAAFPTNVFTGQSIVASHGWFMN
The description is as above. The conditions noted are these: acetoacetate or 3-oxovalerate as co-substrate; 283 and 298 K. The class given is biochemical.

Substrate in series [1]: NC(=O)C1=CN([C@@H]2O[C@H](COP(=O)(O)OP(=O)(O)OC[C@H]3O[C@@H](n4cnc5c(N)ncnc54)[C@H](O)[C@@H]3O)[C@@H](O)[C@H]2O)C=CC1
In words: purified protein, by the assay type. Details: steady-state saturation kinetics of NADH-dependent reduction by purified recombinant HBDH, 298 K. From the text:
(§1) We measured saturation curves for AbHBDH and PaHBDH at various temperatures (283–330 K for AbHBDH and 283–318 K for PaHBDH) (Figure S2 and Tables S1–S4). […] Apparent steady-state catalytic constants (kcat) were used to construct Eyring plots for each enzyme (Figure 1). […] Accordingly, a significant negative ΔCp^⧧ is predicted for the psychrophilic enzyme but not for the mesophilic one (Table S6).

Substrate in series [2]: CCC(=O)CC(=O)O
In words: steady-state saturation curves. The class given is biochemical, Psychrobacter arcticus. Particulars: co-substrate NADH; 283-318 K; 45.0 °C. From the text: (§2) steady-state saturation curves on PaHBDH | We measured saturation curves for AbHBDH and PaHBDH at various temperatures

Substrate in series [3]: CC(=O)CC(=O)O
In words: steady-state saturation curves. The class given is biochemical, Psychrobacter arcticus. Particulars: co-substrate NADH; 283-318 K; 45.0 °C.
Source text: as §2

Substrate in series [4]: NC(=O)C1=CN([C@@H]2O[C@H](COP(=O)(O)OP(=O)(O)OC[C@H]3O[C@@H](n4cnc5c(N)ncnc54)[C@H](O)[C@@H]3O)[C@@H](O)[C@H]2O)C=CC1
In words: purified protein, by the assay type. Details: steady-state saturation kinetics of NADH-dependent reduction by purified recombinant HBDH, 298 K.
Source text: as §1
This is another data set of the same source.

Where two headings read alike, the source gives them in different places.

With `NC(=O)C1=CN([C@@H]2O[C@H](COP(=O)(O)OP(=O)(O)OC[C@H]3O[C@@H](n4cnc5c(N)ncnc54)[C@H](O)[C@@H]3O)[C@@H](O)[C@H]2O)C=CC1` [NADH], the “stopped-flow single-turnover kinetics, NADH limiting” value at AbHBDH is “demonstrating NADH is saturated with AbHBDH and kSTO is unimolecular”; at PaHBDH it was “demonstrating NADH is saturated with PaHBDH and kSTO is unimolecular”.

B1: PaHBDH (Psychrobacter arcticus 273-4) (protein)
chain: T2 sequence (Q4FRT2 1-266)
notes: recombinant purified enzyme; cloning details only in supplement
As to B1, the Km in series [1] stood at 3.4 ± 0.4 µM; in series [2], 36 ± 2 µM; in series [3] it was 110 ± 10 µM; in series [4], 30 ± 10 µM. The kcat in series [1] was determined as 5.9 ± 0.1 s⁻¹; in series [2], 5.9 ± 0.1 s⁻¹; in series [3], 86 ± 4 s⁻¹; in series [4], 86 ± 4 s⁻¹. For the same molecule, the kcat/Km in series [1] amounted to 1.7e+06 ± 800000 M⁻¹ s⁻¹; in series [4], 2.7e+06 ± 700000 M⁻¹ s⁻¹.

By Km is commonly meant the concentration of substrate that gives half-maximal velocity. Broadly, the kcat is the number of substrate molecules converted per active site and unit of time at saturation. A word on the kcat/Km: it is the second-order rate constant that governs catalysis at low substrate concentration.

(Values after PMC6300308, “Linear Eyring Plots Conceal a Change in the Rate-Limiting Step in an Enzyme Reaction” (Biochemistry, 2018).)
